Assay results as given in paper PMC9810080.

Assays:
[1] = biological target: CaM1 peptide, CNGB1 residues 565–589 (UniProt Q14028); test: ITC
[2] = biological target: CaM2 peptide, CNGB1 residues 1120–1147 (UniProt Q14028); test: ITC
Chain of CaM2 peptide, CNGB1 residues 1120–1147 (Q14028 1120-1147): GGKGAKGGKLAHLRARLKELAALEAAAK

Chain of CaM1 peptide, CNGB1 residues 565–589 (Q14028 565-589): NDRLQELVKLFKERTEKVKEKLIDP

With “Calmodulin (CaM), full-length (from UniProt P0DP23 1-149) (natural protein)” as the substance, how does the Kd of the endothermic site (two-site fit) [1] read?
The Kd of the endothermic site (two-site fit) was 240 µM.

What about the apparent Kd of the exothermic site (two-site fit) [1] of the same substance?
Its apparent Kd of the exothermic site (two-site fit) is 1 µM.

What about the dH1 (site 1 of the two-site fit) [1] of the same substance?
The dH1 (site 1 of the two-site fit) was -7.5 kcal/mol.

And the stoichiometry N [1]?
The stoichiometry N was 2 CaM1 per CaM.

And the dH [2]?
The dH was 2.1 kcal/mol.

And the dH1 (site 1 of the two-site fit) [2]?
Its dH1 (site 1 of the two-site fit) is -4.5 kcal/mol.

And the stoichiometry N [2]?
The stoichiometry N was 2 CaM2 per CaM.
